Where two headings read alike, the source gives them in different places. Where no end group is shown, it is not given here.
Legend:
[1] = target: GST-Fg γ^1–17 (residues 395–411 of the Fg γ-chain fused to a GST protein) (human) (UniProt P02679); test: ELISA; human Fg or GST fusion protein coated (1 µg/well); His-tagged ClfA added in increasing concentrations in HBS (10 mM HEPES, 100 mM NaCl, 3 mM EDTA, pH 7.4), 25°C, 1 h; bound ClfA detected with anti-His antibodies; apparent Kd
[2] = target: GST-Fg γ^1–17 (residues 395–411 of the Fg γ-chain fused to a GST protein) (human) (UniProt P02679); test: as above; remark: listed apart in the source
[3] = target: human fibrinogen (Fg), full length (human) (UniProt P02671); test: as above
[4] = target: ClfA_(229–545) (clumping factor A, N2N3 domains) (Staphylococcus aureus strain Newman) (UniProt Q53653); test: ITC
[5] = target: T1, ClfA229–545 (Staphylococcus aureus, UniProt Q53653); test: Isothermal titration calorimetry of ClfA229–545 with soluble Fg peptides; set-up: a smaller ClfA construct (229–545) predicted to be composed only of the N2 N3 domains; His tag (pQE-30 vector) (N); made in house; host or cells: Escherichia coli XL-1 Blue; conditions: ITC, 30 µM ClfA in cell, 500–600 µM peptide in syringe, HBS pH 7.4, 30°C, single binding site model; read-out: Kd of peptide binding to ClfA229–545 in solution (ITC)
T1 sequence (Q53653 229-545): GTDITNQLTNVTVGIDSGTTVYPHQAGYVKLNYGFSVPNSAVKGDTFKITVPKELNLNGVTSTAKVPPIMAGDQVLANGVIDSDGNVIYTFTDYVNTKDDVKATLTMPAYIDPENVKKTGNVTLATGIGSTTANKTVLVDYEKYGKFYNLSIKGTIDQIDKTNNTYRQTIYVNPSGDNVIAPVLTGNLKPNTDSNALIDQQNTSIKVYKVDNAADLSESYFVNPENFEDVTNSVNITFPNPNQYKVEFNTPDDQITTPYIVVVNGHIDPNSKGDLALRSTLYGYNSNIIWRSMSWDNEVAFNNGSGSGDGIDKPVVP
Experimental: The interaction between ClfA proteins and soluble Fg peptides was analyzed by Isothermal titration calorimetry (ITC) using a VP-ITC microcalorimeter (MicroCal). The cell contained 30 µM ClfA and the syringe contained 500–600 µM peptide in HBS buffer (10 mM HEPES, 150 mM NaCl, pH 7.4). All samples were degassed for 5 min. The titration was performed at 30°C using a preliminary injection of 5 µl followed by 30 injections of 10 µl with an injection speed of 0.5 µl/sec. The stirring speed was 300 rpm. Data were fitted to a single binding site model and analyzed using Origin version 5 (MicroCal) software.

[6] = target: T1, ClfA229–545; test: Solid-phase inhibition assay: Fg γ peptides inhibit ClfA binding to immobilized GST-Fg γ^1–17; set-up: a smaller ClfA construct (229–545) predicted to be composed only of the N2 N3 domains; His tag (pQE-30 vector) (N); made in house; host or cells: Escherichia coli XL-1 Blue; conditions: read-out: inhibition of ClfA binding to immobilized GST-Fg γ^1–17
Experimental: To identify specific residues in Fg that are important for binding to ClfA229–545, a panel of peptides (Fig. 1A) based on the Fg γ-chain sequence 395–411 (referred to as γ^1–17) were synthesized in which each position was sequentially substituted with an alanine residue (alanines 11 and 14 were changed to serines). These peptides were tested as inhibitors in solid-phase binding assays, using a peptide concentration giving about 50% inhibition by the wild-type peptide.
(§1) ClfA229–545 (100 nM) was pre-incubated with wild-type Fg γ^1–17 peptide (WT γ^1–17) or the P1 (G1A) to P17 (V17A) mutant peptide (50 µM) for 1 hr.
Immulon 4HBX Microtiter plates (Thermo) were coated with human Fg (1 µg/well) in HBS (10 mM HEPES, 100 mM NaCl, 3 mM EDTA, pH 7.4) over-night at 4°C. The wells were washed with HBS containing 0.05% (w/v) Tween-20 (HBST) and blocked with 5% (w/v) BSA in HBS for 1 h at 25°C. […] After incubation, the plates were washed 3 times with HBST. Anti-His antibodies (GE Healthcare) were added (1∶3000 in HBS) and the plates were incubated at 25°C for 1 h. […] The wells were washed 3 times with HBST and AP-conjugated polyclonal antibodies were detected by addition of p-nitrophenyl phosphate (Sigma) in 1 M diethanolamine (0.5 mM MgCl2, pH 9.8) and incubated at 25°C for 30–60 min. The plates were read at 405 nm in a ELISA plate reader (Thermomax, Molecular Devices). […]

[7] = target: T1, ClfA229–545; conditions: read-out: Kd of ClfA229–545 binding to immobilized GST fusion protein; solid-phase assay, 1 µg GST fusion per well, increasing rClfA229–545, anti-His detection (Fig. 1C)
Experimental: as §1
Immulon 4HBX Microtiter plates (Thermo) were coated with human Fg (1 µg/well) in HBS (10 mM HEPES, 100 mM NaCl, 3 mM EDTA, pH 7.4) over-night at 4°C. The wells were washed with HBS containing 0.05% (w/v) Tween-20 (HBST) and blocked with 5% (w/v) BSA in HBS for 1 h at 25°C. […] After incubation, the plates were washed 3 times with HBST. Anti-His antibodies (GE Healthcare) were added (1∶3000 in HBS) and the plates were incubated at 25°C for 1 h. The wells were subsequently washed 3 times with HBST and incubated with goat anti-mouse-AP secondary antibodies (diluted 1∶3000 in HBS; Bio-Rad) at 25°C for 1 h. The wells were washed 3 times with HBST and AP-conjugated polyclonal antibodies were detected by addition of p-nitrophenyl phosphate (Sigma) in 1 M diethanolamine (0.5 mM MgCl2, pH 9.8) and incubated at 25°C for 30–60 min. The plates were read at 405 nm in a ELISA plate reader (Thermomax, Molecular Devices). For the inhibition assays, recombinant ClfA229–545 was pre-incubated with Fg γ peptides in HBS for 1 h at 37°C.

[8] = target: T2, ClfA_(229–545) (clumping factor A, N2N3 domains) (Staphylococcus aureus strain Newman, UniProt Q53653 229-545); test: ITC
T2 chain: T1 sequence (Q53653 229-545)

human fibrinogen (Fg), full length (human), sequence (P02671 other isoform, or with tags, fused parts or gaps, chain 1 of 3): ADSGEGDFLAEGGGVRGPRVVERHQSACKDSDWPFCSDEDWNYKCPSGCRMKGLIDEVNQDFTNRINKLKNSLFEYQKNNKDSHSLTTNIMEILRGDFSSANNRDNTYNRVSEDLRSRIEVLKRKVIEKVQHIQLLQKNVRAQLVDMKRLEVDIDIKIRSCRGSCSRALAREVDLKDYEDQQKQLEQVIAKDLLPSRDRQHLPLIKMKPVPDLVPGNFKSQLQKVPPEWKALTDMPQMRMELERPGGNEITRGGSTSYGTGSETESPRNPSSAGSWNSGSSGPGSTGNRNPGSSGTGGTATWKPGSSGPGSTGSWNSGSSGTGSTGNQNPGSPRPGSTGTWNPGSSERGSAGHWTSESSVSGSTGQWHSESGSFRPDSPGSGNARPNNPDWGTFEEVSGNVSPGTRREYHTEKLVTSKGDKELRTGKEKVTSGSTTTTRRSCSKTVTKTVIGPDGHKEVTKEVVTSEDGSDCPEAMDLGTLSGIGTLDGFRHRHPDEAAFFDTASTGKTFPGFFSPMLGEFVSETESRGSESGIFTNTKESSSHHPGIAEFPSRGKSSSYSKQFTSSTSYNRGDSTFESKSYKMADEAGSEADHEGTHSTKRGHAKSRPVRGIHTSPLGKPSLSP
human fibrinogen (Fg), full length (human), sequence (P02675 31-491, chain 2 of 3, further chain): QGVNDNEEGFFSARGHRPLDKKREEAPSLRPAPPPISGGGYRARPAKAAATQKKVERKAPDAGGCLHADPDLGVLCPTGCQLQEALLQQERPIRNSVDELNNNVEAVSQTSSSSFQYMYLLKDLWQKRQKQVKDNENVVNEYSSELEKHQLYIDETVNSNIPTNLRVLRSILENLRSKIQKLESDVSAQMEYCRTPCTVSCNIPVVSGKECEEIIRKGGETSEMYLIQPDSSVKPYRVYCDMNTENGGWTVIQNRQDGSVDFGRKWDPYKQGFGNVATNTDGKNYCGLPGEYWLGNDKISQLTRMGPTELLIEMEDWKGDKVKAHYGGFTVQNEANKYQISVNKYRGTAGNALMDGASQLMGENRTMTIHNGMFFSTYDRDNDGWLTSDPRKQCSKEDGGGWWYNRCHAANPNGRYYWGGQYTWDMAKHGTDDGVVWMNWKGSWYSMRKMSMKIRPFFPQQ
human fibrinogen (Fg), full length (human), sequence (P02679 other isoform, or with tags, fused parts or gaps, chain 3 of 3, further chain): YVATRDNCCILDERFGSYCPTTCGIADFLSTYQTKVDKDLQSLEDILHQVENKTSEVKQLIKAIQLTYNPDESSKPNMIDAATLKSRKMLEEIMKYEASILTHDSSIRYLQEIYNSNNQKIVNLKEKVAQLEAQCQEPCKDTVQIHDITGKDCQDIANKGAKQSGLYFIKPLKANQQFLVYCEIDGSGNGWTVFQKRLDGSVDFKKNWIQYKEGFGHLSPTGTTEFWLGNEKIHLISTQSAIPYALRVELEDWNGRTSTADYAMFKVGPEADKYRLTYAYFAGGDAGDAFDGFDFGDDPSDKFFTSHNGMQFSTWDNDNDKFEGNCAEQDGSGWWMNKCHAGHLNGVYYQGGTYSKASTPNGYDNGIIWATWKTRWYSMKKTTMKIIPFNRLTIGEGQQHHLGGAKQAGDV

Work on “ClfA_(229–545) (clumping factor A, N2N3 domains) (from UniProt Q53653 229-545) (domain or fragment)” yielded a Kd [1] of 0.222 µM and a Kd [2] of 0.657 µM.

“ClfA_((229–545)D327C/K541C), stable closed conformation (from UniProt Q53653 229-545) (domain or fragment)” gave a Kd [3] of 0.034 µM and a Kd [1] of 0.02 µM.

“Fg γ^1–17 peptide, wild type (Fg γ-chain 395–411) (from UniProt P02679-2 421-437)” showed a Kd [4] of 5.8 µM.

For GEGQQHHLGGAKQAGAV [γ^1–17 D16A], the Kd [5] was 3 µM.

For GEGQQHHLGGAKQAGDV [WT γ^1–17], the Kd [5] was 5.8 µM and the inhibition at 50 µM [6] was roughly 50%.

In the case of “GST-Fg γ^1–17: recombinant form of residues 395–411 of the Fg γ-chain fused to a GST protein (GEGQQHHLGGAKQAGDV; also: fused to GST, end not given here)”, the Kd [7] is reported as 0.657 µM.

QHHLGGAKQAGAV [Fg γ^5–17 _(D16A) peptide (13 residues)] gave a Kd [8] of 10.5 µM.

With GQQHHLGGAKQAGAV [Fg γ^1–17 _(D16A) peptide truncated by 2 amino acids at the N-terminus] the Kd [8] was 8.8 µM.

HLGGAKQAGAV [Fg γ^1–17 _(D16A) peptide truncated by 6 amino acids at the N-terminus] gave a Kd [8] of 22.5 µM.
